Laboratory results from paper PMC9482650, “Quantitative fragmentomics allow affinity mapping of interactomes” (Nature Communications, 2022).

What was measured:
Experiment in all cases: holdup assay
Parameters in all cases: key: below the threshold = too weak to quantify, mostly under pKd 3.1 to 4
Conditions in all cases: plain residues with an end cap or a label only (N-terminal biotin on a linker: ado-ado)
PARD3B_1, Q8TEW8 = target: T1, PARD3B_1, Q8TEW8
T1 sequence (Q8TEW8 196-299, limits assumed, looked up): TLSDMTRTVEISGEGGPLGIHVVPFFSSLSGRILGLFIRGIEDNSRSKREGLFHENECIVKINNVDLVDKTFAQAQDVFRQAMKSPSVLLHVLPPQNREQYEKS

NHERF2_2, Q15599 = target: NHERF2_2, Q15599
LDB3, O75112 = target: LDB3, O75112
SNTG2, Q9NY99 = target: T2, SNTG2, Q9NY99
T2 sequence (Q9NY99 68-166, limits assumed, looked up): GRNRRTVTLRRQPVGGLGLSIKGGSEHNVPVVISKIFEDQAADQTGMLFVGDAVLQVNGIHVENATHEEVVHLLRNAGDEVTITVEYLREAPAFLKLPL

NHERF4_1, Q86UT5-2 = target: NHERF4_1, Q86UT5-2
MAGI1_1, Q96QZ7 = target: MAGI1_1, Q96QZ7
SIPA1L2, Q9P2F8 = target: T3, SIPA1L2, Q9P2F8
T3 sequence (Q9P2F8 945-1036, limits assumed, looked up): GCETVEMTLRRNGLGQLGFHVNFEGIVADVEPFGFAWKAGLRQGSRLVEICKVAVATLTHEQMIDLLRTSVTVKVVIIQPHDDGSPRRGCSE

Inadl_9, Q8NI35 = target: Inadl_9, Q8NI35
GRIP1_4, Q9Y3R0 = target: T4, GRIP1_4, Q9Y3R0
T4 sequence (Q9Y3R0 467-571, limits assumed, looked up): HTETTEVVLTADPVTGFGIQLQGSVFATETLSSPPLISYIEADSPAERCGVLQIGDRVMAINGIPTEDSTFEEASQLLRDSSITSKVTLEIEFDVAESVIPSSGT

MPP2, Q14168 = target: T5, MPP2, Q14168
T5 sequence (Q14168 180-250, limits assumed, looked up): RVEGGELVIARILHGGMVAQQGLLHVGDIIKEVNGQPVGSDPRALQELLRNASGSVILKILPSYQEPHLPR

DFNB31_1, Q9P202 = target: T6, DFNB31_1, Q9P202
T6 sequence (Q9P202 135-233, limits assumed, looked up): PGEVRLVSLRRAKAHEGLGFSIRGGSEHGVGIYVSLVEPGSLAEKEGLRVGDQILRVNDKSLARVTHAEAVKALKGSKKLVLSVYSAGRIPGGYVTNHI

MAGI2_6, Q86UL8 = target: MAGI2_6, Q86UL8
IL16_1, Q14005 = target: IL16_1, Q14005
DLG4_1, P78352 = target: DLG4_1, P78352
CARD11, Q9BXL7 = target: T7, CARD11, Q9BXL7
T7 sequence (Q9BXL7 662-765, limits assumed, looked up): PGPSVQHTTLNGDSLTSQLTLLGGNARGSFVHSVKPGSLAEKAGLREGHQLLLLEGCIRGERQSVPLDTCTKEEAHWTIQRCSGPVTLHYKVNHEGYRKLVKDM

SHANK1, Q9Y566 = target: T8, SHANK1, Q9Y566
T8 sequence (Q9Y566 658-767, limits assumed, looked up): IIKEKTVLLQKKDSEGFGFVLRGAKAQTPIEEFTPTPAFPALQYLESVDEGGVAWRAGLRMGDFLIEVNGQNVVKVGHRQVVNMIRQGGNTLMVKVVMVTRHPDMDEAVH

LNX2_2, Q8N448 = target: T9, LNX2_2, Q8N448
T9 sequence (Q8N448 334-432, limits assumed, looked up): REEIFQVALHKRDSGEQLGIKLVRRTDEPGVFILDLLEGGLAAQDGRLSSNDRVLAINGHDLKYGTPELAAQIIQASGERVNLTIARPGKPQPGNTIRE

LNX1_1, Q8TBB1 = target: LNX1_1, Q8TBB1
SCRIB_3, Q14160 = target: SCRIB_3, Q14160
GRID2IP_2, A4D2P6 = target: GRID2IP_2, A4D2P6
GIPC2, Q8TF65 = target: GIPC2, Q8TF65
DFNB31_2, Q9P202 = target: T10, DFNB31_2, Q9P202
T10 sequence (Q9P202 274-371, limits assumed, looked up): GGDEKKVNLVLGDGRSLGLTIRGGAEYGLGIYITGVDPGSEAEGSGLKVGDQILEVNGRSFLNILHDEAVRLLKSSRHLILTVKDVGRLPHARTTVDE

PDZD7_3, Q9H5P4 = target: T11, PDZD7_3, Q9H5P4
T11 sequence (Q9H5P4 857-944, limits assumed, looked up): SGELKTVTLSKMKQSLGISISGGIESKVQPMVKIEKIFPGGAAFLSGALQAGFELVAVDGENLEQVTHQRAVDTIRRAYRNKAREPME

PTPN13_1, Q12923 = target: T12, PTPN13_1, Q12923
T12 sequence (Q12923 1088-1188, limits assumed, looked up): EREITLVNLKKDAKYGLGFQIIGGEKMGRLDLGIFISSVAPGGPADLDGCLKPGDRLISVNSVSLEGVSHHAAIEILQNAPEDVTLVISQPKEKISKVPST

GRASP, Q7Z6J2 = target: GRASP, Q7Z6J2
Chain of GRASP, Q7Z6J2 (Q7Z6J2 96-193): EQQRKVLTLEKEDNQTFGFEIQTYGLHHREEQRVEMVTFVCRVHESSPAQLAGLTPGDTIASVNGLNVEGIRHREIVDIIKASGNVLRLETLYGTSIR

Chain of LNX1_1, Q8TBB1 (Q8TBB1 261-371): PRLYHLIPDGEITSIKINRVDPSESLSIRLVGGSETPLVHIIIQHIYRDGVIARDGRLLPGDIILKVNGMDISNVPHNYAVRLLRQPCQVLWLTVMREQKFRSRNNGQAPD
Chain of GRID2IP_2, A4D2P6 (A4D2P6 272-370): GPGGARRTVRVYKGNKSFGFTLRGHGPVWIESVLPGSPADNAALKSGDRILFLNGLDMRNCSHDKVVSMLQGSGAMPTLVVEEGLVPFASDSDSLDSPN
Chain of NHERF4_1, Q86UT5-2 (Q86UT5 other isoform, or with tags, fused parts or gaps): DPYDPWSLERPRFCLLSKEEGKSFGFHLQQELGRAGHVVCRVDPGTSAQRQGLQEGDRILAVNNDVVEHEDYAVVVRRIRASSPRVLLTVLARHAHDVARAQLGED
Chain of IL16_1, Q14005 (Q14005 210-306): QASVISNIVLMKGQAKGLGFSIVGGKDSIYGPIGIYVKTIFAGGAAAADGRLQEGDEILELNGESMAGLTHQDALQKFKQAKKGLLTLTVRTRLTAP
Chain of GIPC2, Q8TF65 (Q8TF65 112-203): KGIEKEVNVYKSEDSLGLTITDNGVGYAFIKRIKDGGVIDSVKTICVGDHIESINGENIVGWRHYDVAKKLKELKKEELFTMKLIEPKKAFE
Chain of SCRIB_3, Q14160 (Q14160 999-1103): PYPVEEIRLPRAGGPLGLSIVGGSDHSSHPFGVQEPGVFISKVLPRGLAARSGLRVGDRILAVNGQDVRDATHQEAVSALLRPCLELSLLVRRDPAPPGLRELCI
Chain of Inadl_9, Q8NI35 (Q8NI35 1530-1615): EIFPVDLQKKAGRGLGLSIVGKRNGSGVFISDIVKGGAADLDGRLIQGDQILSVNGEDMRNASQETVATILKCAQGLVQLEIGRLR
Chain of NHERF2_2, Q15599 (Q15599 142-238): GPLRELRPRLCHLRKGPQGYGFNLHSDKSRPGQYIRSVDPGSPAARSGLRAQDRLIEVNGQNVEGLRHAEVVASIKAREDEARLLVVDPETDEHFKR
Chain of MAGI1_1, Q96QZ7 (Q96QZ7 1-106): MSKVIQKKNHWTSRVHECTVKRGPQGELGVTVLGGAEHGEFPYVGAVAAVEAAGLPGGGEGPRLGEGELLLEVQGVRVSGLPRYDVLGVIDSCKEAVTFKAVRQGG
Chain of DLG4_1, P78352 (P78352 62-152): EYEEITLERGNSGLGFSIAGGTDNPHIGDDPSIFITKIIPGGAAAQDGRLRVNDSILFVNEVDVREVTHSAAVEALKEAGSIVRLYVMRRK
Chain of LDB3, O75112 (O75112 1-94): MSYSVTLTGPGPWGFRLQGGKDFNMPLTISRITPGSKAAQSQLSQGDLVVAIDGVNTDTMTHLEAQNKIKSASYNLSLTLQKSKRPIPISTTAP
Chain of MAGI2_6, Q86UL8 (Q86UL8 1141-1229): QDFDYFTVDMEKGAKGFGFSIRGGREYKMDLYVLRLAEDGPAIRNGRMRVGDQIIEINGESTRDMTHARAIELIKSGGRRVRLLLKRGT

Question: With KEKASTETEC [TRPM1, Q7Z4N2] as the binder, how does the pKd (PARD3B_1, Q8TEW8) read?
Answer: 3.97

Question: And the pKd (NHERF2_2, Q15599)?
Answer: below the threshold

Question: And the pKd (LDB3, O75112)?
Answer: below the threshold

Question: What about the pKd (SNTG2, Q9NY99) of the same binder?
Answer: below the threshold

Question: And the pKd (NHERF4_1, Q86UT5-2)?
Answer: 3.66

Question: What about the pKd (MAGI1_1, Q96QZ7) of the same binder?
Answer: below the threshold

Question: And the pKd (SIPA1L2, Q9P2F8)?
Answer: below the threshold

Question: And the pKd (Inadl_9, Q8NI35)?
Answer: below the threshold

Question: And the pKd (GRIP1_4, Q9Y3R0)?
Answer: below the threshold

Question: And the pKd (MPP2, Q14168)?
Answer: below the threshold

Question: And the pKd (DFNB31_1, Q9P202)?
Answer: below the threshold

Question: What about the pKd (MAGI2_6, Q86UL8) of the same binder?
Answer: below the threshold

Question: And the pKd (IL16_1, Q14005)?
Answer: below the threshold

Question: What about the pKd (DLG4_1, P78352) of the same binder?
Answer: 3.88

Question: And the pKd (CARD11, Q9BXL7)?
Answer: below the threshold

Question: What about the pKd (SHANK1, Q9Y566) of the same binder?
Answer: below the threshold

Question: What about the pKd (LNX2_2, Q8N448) of the same binder?
Answer: below the threshold

Question: What about the pKd (LNX1_1, Q8TBB1) of the same binder?
Answer: below the threshold

Question: What about the pKd (SCRIB_3, Q14160) of the same binder?
Answer: 4.23

Question: What about the pKd (GRID2IP_2, A4D2P6) of the same binder?
Answer: below the threshold

Question: What about the pKd (GIPC2, Q8TF65) of the same binder?
Answer: 4.1

Question: And the pKd (DFNB31_2, Q9P202)?
Answer: below the threshold

Question: And the pKd (PDZD7_3, Q9H5P4)?
Answer: below the threshold

Question: And the pKd (PTPN13_1, Q12923)?
Answer: below the threshold

Question: And the pKd (GRASP, Q7Z6J2)?
Answer: below the threshold

Question: Which pKd (PARD3B_1, Q8TEW8) does the source give for KIEDVEITLV [FCHSD2, O94868] here?
Answer: 3.91

Question: And the pKd (NHERF2_2, Q15599)?
Answer: 3.86

Question: And the pKd (LDB3, O75112)?
Answer: below the threshold

Question: What about the pKd (SNTG2, Q9NY99) of the same binder?
Answer: 3.58

Question: And the pKd (NHERF4_1, Q86UT5-2)?
Answer: 3.73

Question: And the pKd (MAGI1_1, Q96QZ7)?
Answer: below the threshold

Question: What about the pKd (SIPA1L2, Q9P2F8) of the same binder?
Answer: below the threshold

Question: And the pKd (Inadl_9, Q8NI35)?
Answer: 3.68

Question: What about the pKd (GRIP1_4, Q9Y3R0) of the same binder?
Answer: below the threshold

Question: What about the pKd (MPP2, Q14168) of the same binder?
Answer: below the threshold

Question: What about the pKd (DFNB31_1, Q9P202) of the same binder?
Answer: 3.48

Question: What about the pKd (MAGI2_6, Q86UL8) of the same binder?
Answer: 4.24

Question: What about the pKd (IL16_1, Q14005) of the same binder?
Answer: 3.48

Question: What about the pKd (DLG4_1, P78352) of the same binder?
Answer: 3.89

Question: What about the pKd (CARD11, Q9BXL7) of the same binder?
Answer: below the threshold

Question: What about the pKd (SHANK1, Q9Y566) of the same binder?
Answer: 4.1

Question: And the pKd (LNX2_2, Q8N448)?
Answer: 5.6

Question: And the pKd (LNX1_1, Q8TBB1)?
Answer: below the threshold

Question: What about the pKd (SCRIB_3, Q14160) of the same binder?
Answer: 3.48

Question: What about the pKd (GRID2IP_2, A4D2P6) of the same binder?
Answer: 4.63

Question: And the pKd (GIPC2, Q8TF65)?
Answer: below the threshold

Question: What about the pKd (DFNB31_2, Q9P202) of the same binder?
Answer: below the threshold

Question: And the pKd (PDZD7_3, Q9H5P4)?
Answer: 5.46

Question: What about the pKd (PTPN13_1, Q12923) of the same binder?
Answer: below the threshold

Question: What about the pKd (GRASP, Q7Z6J2) of the same binder?
Answer: 5.5

Question: With MQILSKPEFI [NPSR1, Q6W5P4] as the binder, how does the pKd (PARD3B_1, Q8TEW8) read?
Answer: 4.09

Question: What about the pKd (NHERF2_2, Q15599) of the same binder?
Answer: below the threshold

Question: What about the pKd (LDB3, O75112) of the same binder?
Answer: below the threshold

Question: And the pKd (SNTG2, Q9NY99)?
Answer: below the threshold

Question: And the pKd (NHERF4_1, Q86UT5-2)?
Answer: 3.62

Question: And the pKd (MAGI1_1, Q96QZ7)?
Answer: below the threshold

Question: And the pKd (SIPA1L2, Q9P2F8)?
Answer: below the threshold

Question: And the pKd (Inadl_9, Q8NI35)?
Answer: 3.64

Question: And the pKd (GRIP1_4, Q9Y3R0)?
Answer: below the threshold

Question: What about the pKd (MPP2, Q14168) of the same binder?
Answer: below the threshold

Question: And the pKd (DFNB31_1, Q9P202)?
Answer: below the threshold

Question: And the pKd (MAGI2_6, Q86UL8)?
Answer: below the threshold

Question: What about the pKd (IL16_1, Q14005) of the same binder?
Answer: below the threshold

Question: And the pKd (DLG4_1, P78352)?
Answer: below the threshold

Question: What about the pKd (CARD11, Q9BXL7) of the same binder?
Answer: below the threshold

Question: What about the pKd (SHANK1, Q9Y566) of the same binder?
Answer: below the threshold

Question: And the pKd (LNX2_2, Q8N448)?
Answer: below the threshold

Question: What about the pKd (LNX1_1, Q8TBB1) of the same binder?
Answer: below the threshold

Question: What about the pKd (SCRIB_3, Q14160) of the same binder?
Answer: 3.59

Question: And the pKd (GRID2IP_2, A4D2P6)?
Answer: below the threshold

Question: What about the pKd (GIPC2, Q8TF65) of the same binder?
Answer: below the threshold

Question: And the pKd (DFNB31_2, Q9P202)?
Answer: below the threshold

Question: And the pKd (PDZD7_3, Q9H5P4)?
Answer: below the threshold

Question: And the pKd (PTPN13_1, Q12923)?
Answer: below the threshold

Question: What about the pKd (GRASP, Q7Z6J2) of the same binder?
Answer: 3.68

Question: What does the source list for STYCDYTIEI [FAM71C, Q8NEG0]?
Answer: pKd (PARD3B_1, Q8TEW8): 4.1; pKd (NHERF2_2, Q15599): below the threshold; pKd (LDB3, O75112): below the threshold; pKd (SNTG2, Q9NY99): below the threshold; pKd (NHERF4_1, Q86UT5-2): below the threshold; pKd (MAGI1_1, Q96QZ7): below the threshold; pKd (SIPA1L2, Q9P2F8): below the threshold; pKd (Inadl_9, Q8NI35): 4.19; pKd (GRIP1_4, Q9Y3R0): below the threshold; pKd (MPP2, Q14168): below the threshold; pKd (DFNB31_1, Q9P202): below the threshold; pKd (MAGI2_6, Q86UL8): below the threshold; pKd (IL16_1, Q14005): below the threshold; pKd (DLG4_1, P78352): below the threshold; pKd (CARD11, Q9BXL7): below the threshold; pKd (SHANK1, Q9Y566): below the threshold; pKd (LNX2_2, Q8N448): 4.96; pKd (LNX1_1, Q8TBB1): below the threshold; pKd (SCRIB_3, Q14160): 4.06; pKd (GRID2IP_2, A4D2P6): below the threshold; pKd (GIPC2, Q8TF65): 3.49; pKd (DFNB31_2, Q9P202): below the threshold; pKd (PDZD7_3, Q9H5P4): 3.55; pKd (PTPN13_1, Q12923): below the threshold; pKd (GRASP, Q7Z6J2): 3.69
